The values below come from patent US20230265151A1, “GIP/GLP1 CO-AGONIST COMPOUNDS” (priority 2020, published 2023).

By Ki is commonly meant the dissociation constant of the complex between target and ligand, obtained from inhibition or displacement. Read a high Ki as a looser hold on the target.

In one test the target is T1, human GIP receptor (human, UniProt P48546 22-466).
T1 construct: whole, on cells; also called hGIPR; human glucose-dependent insulinotropic polypeptide receptor
T1 sequence (looked up): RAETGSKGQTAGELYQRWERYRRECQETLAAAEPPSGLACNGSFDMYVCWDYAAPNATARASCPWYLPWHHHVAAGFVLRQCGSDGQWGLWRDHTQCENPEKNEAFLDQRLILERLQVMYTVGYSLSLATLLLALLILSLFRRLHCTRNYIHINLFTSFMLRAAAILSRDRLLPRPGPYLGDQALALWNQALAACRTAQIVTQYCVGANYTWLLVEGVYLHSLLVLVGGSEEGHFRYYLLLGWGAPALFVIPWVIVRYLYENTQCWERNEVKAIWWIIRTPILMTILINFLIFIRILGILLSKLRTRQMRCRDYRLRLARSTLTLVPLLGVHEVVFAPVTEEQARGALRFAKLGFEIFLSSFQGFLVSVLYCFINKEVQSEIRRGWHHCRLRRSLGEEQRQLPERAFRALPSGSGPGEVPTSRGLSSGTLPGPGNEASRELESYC
Briefly: SPA competition vs [125I]-GIP, hGIPR membranes.

Another test deals with T2, human glucagon receptor (human, UniProt P47871 26-477).
T2 construct: whole, on cells; also called hGCGR; hGcgR
Briefly: SPA competition vs [125I]-Gcg, hGcgR membranes.

Another test has as its target T3, human GLP-1 receptor (human, UniProt P43220 24-463).
T3 construct: whole, on cells; also called hGLP-1R; human glucagon-like peptide-1 receptor
Briefly: SPA competition vs [125I]-GLP-1, hGLP-1R membranes. In short, it runs like this:
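Kᵢ values are geometric means (SEM) over replicates run on separate days, derived from IC₅₀ of four-parameter curve fits. Buffer: HEPES 25 mM pH 7.4 with CaCl₂ 2.5 mM, MgCl₂ 1 mM, bacitracin 0.1%, TWEEN-20 0.003%, EDTA-free protease inhibitors.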

*1 amine or outer side, *2 acyl side, *3 side chain or, on linkers, in order; H or OH if unused. Where no end group is shown, it is not given here. Side-chain parts run from the residue outwards. [ ]: non-standard residue; d: D form. The star is where a group is joined. Decanoyl(10-(4-HOOC-PhO)) = O=C(O)c1ccc(OCCCCCCCCCC(=O)*)cc1; αMePhe(2-F) = C[C@](N)(Cc1ccccc1F)C(=O)O; γGlu = O=C(O)[C@H](CCC(=O)[*:2])N[*:1]; αMeY = C[C@](N)(Cc1ccc(O)cc1)C(=O)O; αMeL = CC(C)C[C@](C)(N)C(=O)O; Orn = NCCC[C@H](N)C(=O)O; AEEA = NCCOCCOCC(=O)O; Aib = CC(C)(N)C(=O)O

T2 sequence (P47871 26-477): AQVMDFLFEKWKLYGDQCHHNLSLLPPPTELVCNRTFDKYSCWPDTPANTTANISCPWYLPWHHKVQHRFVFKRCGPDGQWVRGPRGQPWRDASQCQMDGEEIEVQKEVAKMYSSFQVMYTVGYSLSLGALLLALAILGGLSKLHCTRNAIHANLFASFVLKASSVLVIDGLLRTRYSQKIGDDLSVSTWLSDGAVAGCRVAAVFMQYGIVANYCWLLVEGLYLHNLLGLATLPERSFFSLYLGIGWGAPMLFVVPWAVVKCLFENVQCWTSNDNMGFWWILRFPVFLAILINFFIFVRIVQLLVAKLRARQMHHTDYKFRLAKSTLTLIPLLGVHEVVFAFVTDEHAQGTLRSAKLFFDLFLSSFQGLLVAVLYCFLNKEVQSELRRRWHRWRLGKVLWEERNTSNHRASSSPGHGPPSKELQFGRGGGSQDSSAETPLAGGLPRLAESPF

B1: Y-Aib-EGT-αMeF(2F)-TSD-4Pal-Aib-I-αMeL-LD-Orn-QAQ-Aib-Orn-FIK(Ahx-(2-[2-(2-Amino-ethoxy)-ethoxy]-acetyl)-(γ-Glu)-(10-(4-carboxyphenoxy)decanoyl))-αMeY-LIK(Ahx-( … (peptide)
peptide: YXEGTXTSDXXIXLDXQAQXXFIKXLIKGGPSSGAPPPS
modifications: Aib2, αMeF(2F)6, 4Pal10, Aib11, αMeL13, Orn16, Aib20, Orn21, K24(Z1), αMeY25, K28(Z1), C-term NH2; Z1=Ahx-AEEA-(γ-Glu)-(10-(4-carboxyphenoxy)decanoyl)
Regarding B1, the Ki with human GIP receptor was 0.0143 nM; with human glucagon receptor, 60.1 nM; in the test with human GLP-1 receptor, 0.243 nM.

B2: Y-Aib-EGT-αMeF(2F)-TSD-4Pal-SI-αMeL-LD-Orn-K((2-[2-(2-Amino-ethoxy)-ethoxy]-acetyl)2-(γ-Glu)-CO-(CH2)12-CH3)AQ-Aib-EFI-(D-Glu)-αMeY-LIEGGK((2-[2-(2-Amino-ethoxy … (peptide)
peptide: YXEGTXTSDXSIXLDXKAQXEFIXXLIEGGKSSGAPPPS
modifications: Aib2, αMeF(2F)6, 4Pal10, αMeL13, Orn16, K17(Z1), Aib20, D-Glu24, αMeY25, K31(Z1), C-term NH2; Z1=AEEA2-(γ-Glu)-CO-(CH2)12-CH3
B2: the Ki was 0.024 nM with human GIP receptor, 4.29 nM in the test with human glucagon receptor and 0.139 nM in the test with human GLP-1 receptor.

B3: Y-Aib-EGT-αMeF(2F)-TSD-4Pal-Aib-I-αMeL-LD-Orn-K((2-[2-(2-Amino-ethoxy)-ethoxy]-acetyl)3-(γ-Glu)-CO-(CH2)10-CH3)AQ-Aib-Orn-FI-(D-Glu)-αMeY-LIK((2-[2-(2-Amino-eth … (peptide)
peptide: YXEGTXTSDXXIXLDXKAQXXFIXXLIKGGPSSGAPPPS
modifications: Aib2, αMeF(2F)6, 4Pal10, Aib11, αMeL13, Orn16, K17(Z1), Aib20, Orn21, D-Glu24, αMeY25, K28(Z1), C-term NH2; Z1=AEEA3-(γ-Glu)-CO-(CH2)10-CH3
Regarding B3, the values for the Ki with human GIP receptor, with human glucagon receptor and with human GLP-1 receptor were 0.00965 nM, 81.2 nM and 0.15 nM, respectively.

B4: Y-Aib-EGT-αMeF(2F)-TSD-4Pal-Aib-I-αMeL-LD-Orn-QAQ-Aib-Orn-FIK(PEG3-(γ-Glu)-CO-(CH2)12-CO2H)-αMeY-LIK(PEG3-(γ-Glu)-CO-(CH2)12-CO2H)GGPSSGAPPPS-NH2 (peptide)
peptide: YXEGTXTSDXXIXLDXQAQXXFIKXLIKGGPSSGAPPPS
modifications: Aib2, αMeF(2F)6, 4Pal10, Aib11, αMeL13, Orn16, Aib20, Orn21, K24(Z1), αMeY25, K28(Z1), C-term NH2; Z1=PEG3-(γ-Glu)-CO-(CH2)12-CO2H
On to B4, for which the Ki in the test with human GIP receptor stood at 0.0232 nM; in the test with human glucagon receptor, 170 nM; in the test with human GLP-1 receptor it was 0.266 nM.

B5: Y-Aib-EGT-αMeF(2F)-TSDK((2-[2-(2-Amino-ethoxy)-ethoxy]-acetyl)3-(γ-Glu)-CO-(CH2)10-CH3)-Aib-I-αMeL-LD-Orn-K((2-[2-(2-Amino-ethoxy)-ethoxy]-acetyl)3-(γ-Glu)-CO-( … (peptide)
peptide: YXEGTXTSDKXIXLDXKAQXEXIXXLIEGGPSSGAPPPS
modifications: Aib2, αMeF(2F)6, K10(Z1), Aib11, αMeL13, Orn16, K17(Z1), Aib20, αMeF22, D-Glu24, αMeY25, C-term NH2; Z1=AEEA3-(γ-Glu)-CO-(CH2)10-CH3
On to B5, for which the figures for the Ki with human GIP receptor, with human glucagon receptor and with human GLP-1 receptor were 0.0372 nM, 64.9 nM and 0.412 nM, respectively.

B6: Y-Aib-EGT-αMeF(2F)-TSD-4Pal-Aib-I-αMeL-LD-Orn-QAQ-Aib-Orn-FIK(Ahx-(2-[2-(2-Amino-ethoxy)-ethoxy]-acetyl)-(γ-Glu)-CO-(CH2)12-CO2)-αMeY-LIK(Ahx-(2-[2-(2-Amino-eth … (peptide)
peptide: YXEGTXTSDXXIXLDXQAQXXFIKXLIKGGPSSGAPPPS
modifications: Aib2, αMeF(2F)6, 4Pal10, Aib11, αMeL13, Orn16, Aib20, Orn21, K24(Z1), αMeY25, K28(Z1), C-term NH2; Z1=Ahx-AEEA-(γ-Glu)-CO-(CH2)12-CO2 (so in the source)
With B6, the inhibition constant Ki with human GIP receptor was found to be 0.0239 nM; in the test with human glucagon receptor, 258 nM; with human GLP-1 receptor it was 0.234 nM.

B7: Y-Aib-EGT-αMeF(2F)-TSD-4Pal-Aib-I-αMeL-LD-Orn-QAQ-Aib-Orn-FIK(PEG4-(γ-Glu)-(10-(4-carboxyphenoxy)decanoyl))-αMeY-LIK(PEG4-(γ-Glu)-(10-(4-carboxyphenoxy)decanoyl … (peptide)
peptide: YXEGTXTSDXXIXLDXQAQXXFIKXLIKGGPSSGAPPPS
modifications: Aib2, αMeF(2F)6, 4Pal10, Aib11, αMeL13, Orn16, Aib20, Orn21, K24(Z1), αMeY25, K28(Z1), C-term NH2; Z1=PEG4-(γ-Glu)-(10-(4-carboxyphenoxy)decanoyl)
For the molecule B7, the Ki in the test with human GIP receptor worked out at 0.01 nM; with human glucagon receptor it was 101 nM; with human GLP-1 receptor, 0.14 nM.

B8: Y-Aib-EGT-αMeF(2F)-TSD-4Pal-Aib-I-αMeL-LD-Orn-K((2-[2-(2-Amino-ethoxy)-ethoxy]-acetyl)3-(γ-Glu)-CO-(CH2)10-CH3)AQ-Aib-K((2-[2-(2-Amino-ethoxy)-ethoxy]-acetyl)3- … (peptide)
peptide: YXEGTXTSDXXIXLDXKAQXKFIXXLIXGGPSSGAPPPS
modifications: Aib2, αMeF(2F)6, 4Pal10, Aib11, αMeL13, Orn16, K17(Z1), Aib20, K21(Z1), D-Glu24, αMeY25, Orn28, C-term NH2; Z1=AEEA3-(γ-Glu)-CO-(CH2)10-CH3
For B8, the Ki was 0.0175 nM in the test with human GIP receptor, 28.3 nM with human glucagon receptor and 0.187 nM with human GLP-1 receptor.

B9: Y-Aib-EGT-αMeF(2F)-TSD-4Pal-Aib-I-αMeL-LD-Orn-QAQ-Aib-Orn-FIK((2-[2-(2-Amino-ethoxy)-ethoxy]-acetyl)2-(γ-Glu)-(10-(4-carboxyphenoxy)decanoyl))-αMeY-LIK((2-[2-(2 … (peptide)
peptide: YXEGTXTSDXXIXLDXQAQXXFIKXLIKGGPSSGAPPPS
modifications: Aib2, αMeF(2F)6, 4Pal10, Aib11, αMeL13, Orn16, Aib20, Orn21, K24(Z1), αMeY25, K28(Z1), C-term NH2; Z1=AEEA2-(γ-Glu)-(10-(4-carboxyphenoxy)decanoyl)
In the case of B9, the Ki with human GIP receptor is 0.0312 nM; with human glucagon receptor, 131 nM; in the test with human GLP-1 receptor, 0.373 nM.

B10: Y-Aib-EGT-αMeF(2F)-TSD-4Pal-Aib-I-αMeL-LD-Orn-K((2-[2-(2-Amino-ethoxy)-ethoxy]-acetyl)3-(γ-Glu)-CO-(CH2)10-CH3)AQ-Aib-EFI-(D-Glu)-αMeY-LIK((2-[2-(2-Amino-ethoxy … (peptide)
peptide: YXEGTXTSDXXIXLDXKAQXEFIXXLIKGGPSSGAPPPS
modifications: Aib2, αMeF(2F)6, 4Pal10, Aib11, αMeL13, Orn16, K17(Z1), Aib20, D-Glu24, αMeY25, K28(Z1), C-term NH2; Z1=AEEA3-(γ-Glu)-CO-(CH2)10-CH3
B10: the figures for the Ki in the test with human GIP receptor, with human glucagon receptor and with human GLP-1 receptor were 0.0207 nM, 85.9 nM and 0.275 nM, respectively.

B11: Y-Aib-EGT-αMeF(2F)-TSDK((2-[2-(2-Amino-ethoxy)-ethoxy]-acetyl)3-(γ-Glu)-CO-(CH2)10-CH3)-Aib-I-αMeL-LD-Orn-K((2-[2-(2-Amino-ethoxy)-ethoxy]-acetyl)3-(γ-Glu)-CO-( … (peptide)
peptide: YXEGTXTSDKXIXLDXKAQXXFIXXLIEGGPSSGAPPPS
modifications: Aib2, αMeF(2F)6, K10(Z1), Aib11, αMeL13, Orn16, K17(Z1), Aib20, Orn21, D-Glu24, αMeY25, C-term NH2; Z1=AEEA3-(γ-Glu)-CO-(CH2)10-CH3
In the case of B11, the Ki in the test with human GIP receptor turned out to be 0.0134 nM; in the test with human glucagon receptor it was 356 nM; in the test with human GLP-1 receptor, 0.134 nM.

B12: Y-Aib-EGT-αMeF(2F)-TSD-4Pal-Aib-I-αMeL-LD-Orn-QAQ-Aib-Orn-FIK((2-[2-(2-Amino-ethoxy)-ethoxy]-acetyl)2-(γ-Glu)-(11-(4-carboxyphenoxy)undecanoyl)-αMeY-LIK((2-[2-( … (peptide)
peptide: YXEGTXTSDXXIXLDXQAQXXFIKXLIKGGPSSGAPPPS
modifications: Aib2, αMeF(2F)6, 4Pal10, Aib11, αMeL13, Orn16, Aib20, Orn21, K24(Z1), αMeY25, K28(Z1), C-term NH2; Z1=AEEA2-(γ-Glu)-(11-(4-carboxyphenoxy)undecanoyl)
On to B12, for which the Ki is 0.0507 nM with human GIP receptor, 130 nM with human glucagon receptor and 0.164 nM with human GLP-1 receptor.

B13: Y-Aib-EGT-αMeF(2F)-TSD-4Pal-Aib-I-αMeL-LD-Orn-QAQ-Aib-Orn-FIK(PEG4-(γ-Glu)-CO-(CH2)12-CO2H)-αMeY-LIK(PEG4-(γ-Glu)-CO-(CH2)12-CO2H)GGPSSGAPPPS-NH2 (peptide)
peptide: YXEGTXTSDXXIXLDXQAQXXFIKXLIKGGPSSGAPPPS
modifications: Aib2, αMeF(2F)6, 4Pal10, Aib11, αMeL13, Orn16, Aib20, Orn21, K24(Z1), αMeY25, K28(Z1), C-term NH2; Z1=PEG4-(γ-Glu)-CO-(CH2)12-CO2H
For B13, the Ki turned out to be 0.0419 nM with human GIP receptor, 351 nM with human glucagon receptor and 0.252 nM in the test with human GLP-1 receptor.

Consider Y[Aib]EGT[αMePhe(2-F)]TSDV[Aib]I[αMeL]LD[Orn]QAQ[Aib]EFIK([AEEA-AEEA-γGlu-Decanoyl(10-(4-HOOC-PhO))])[αMeY]LIK([AEEA-AEEA-γGlu-Decanoyl(10-(4-HOOC-PhO))])GGPSSGAPPPS-NH2 [Y-Aib-EGT-αMeF(2F)-TSDV-Aib-I-αMeL-LD-Orn …], for which the figures for the Ki with human GIP receptor, with human glucagon receptor and in the test with human GLP-1 receptor were 0.0369 nM, 109 nM and 0.382 nM, respectively.
